One substance from publication doi:10.1101/2024.11.10.622895 can be followed below.

“And” between values parts separate entries of the source, which are not always exact repeats. Equal values may be shown once.

One may read the stoichiometry N as a count of units in the complex or per binding partner.

The target of the experiment is tail tube protein (TTP) of Bacillus subtilis bacteriophage SPR (Bacillus subtilis bacteriophage SPR). Description: cryo-EM structure.

Turning to “tail tube protein (TTP) of Bacillus subtilis bacteriophage SPR (natural protein)”, the stoichiometry N is 5 and 6.
